Experimental data from article PMC9452783, “PLK1-mediated phosphorylation of PPIL2 regulates HR via CtIP” (Frontiers in Cell and Developmental Biology, 2022).

T1: GST-ZNF830 (E. coli, purified) (UniProt Q96NB3 1-372)
T1 construct: ZNF830, full length, GST-tagged (pGEX6T-1); also called GST-tagged ZNF830; source: E. coli BL21, purified (glutathione-Sepharose 4B)
T1 sequence (looked up): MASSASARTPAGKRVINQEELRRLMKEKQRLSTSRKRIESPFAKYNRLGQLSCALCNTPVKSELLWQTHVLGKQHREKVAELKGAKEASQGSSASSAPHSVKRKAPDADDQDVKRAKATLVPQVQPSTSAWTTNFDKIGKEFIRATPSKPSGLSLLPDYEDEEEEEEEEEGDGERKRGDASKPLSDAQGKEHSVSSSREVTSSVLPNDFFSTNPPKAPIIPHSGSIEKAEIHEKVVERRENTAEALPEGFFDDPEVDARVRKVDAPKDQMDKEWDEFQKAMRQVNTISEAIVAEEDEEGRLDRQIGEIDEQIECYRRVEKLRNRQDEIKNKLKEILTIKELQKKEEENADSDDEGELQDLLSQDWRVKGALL

B1: GST-ZNF830 151-372 (E. coli, purified) (domain or fragment, UniProt Q96NB3 151-372, looked up)
chain: SGLSLLPDYEDEEEEEEEEEGDGERKRGDASKPLSDAQGKEHSVSSSREVTSSVLPNDFFSTNPPKAPIIPHSGSIEKAEIHEKVVERRENTAEALPEGFFDDPEVDARVRKVDAPKDQMDKEWDEFQKAMRQVNTISEAIVAEEDEEGRLDRQIGEIDEQIECYRRVEKLRNRQDEIKNKLKEILTIKELQKKEEENADSDDEGELQDLLSQDWRVKGALL
notes: source: E. coli BL21, purified (glutathione-Sepharose 4B)
B2: His-PPIL2 241-520 (E. coli, purified) (domain or fragment, UniProt Q13356 241-520, looked up)
chain: YSTGKVSASFTSTAMVPETTHEAAAIDEDVLRYQFVKKKGYVRLHTNKGDLNLELHCDLTPKTCENFIRLCKKHYYDGTIFHRSIRNFVIQGGDPTGTGTGGESYWGKPFKDEFRPNLSHTGRGILSMANSGPNSNRSQFFITFRSCAYLDKKHTIFGRVVGGFDVLTAMENVESDPKTDRPKEEIRIDATTVFVDPYEEADAQIAQERKTQLKVAPETKVKSSQPQAGSQGPQTFRQGVGKYINPAATKRAAEEEPSTSATVPMSKKKPSRGFGDFSSW
notes: source: E. coli BL21, purified (Ni-NTA)

Legend:
[1] = target: B2; assay: pull-down; GST pull-down with purified GST-ZNF830 (full length or fragments) and His-PPIL2 (full length or fragments) expressed in E. coli; western blot and Coomassie brilliant blue; settings: both partners purified
[2] = target: T1, GST-ZNF830 (E. coli, purified); assay: as above; settings: both partners purified

B1: binds [1].

B2: binds [2].
